Measured values taken from patent publication US20160361384A1, “COSMETIC USE OF DERMICIDIN, OR ANALOGUES OR FRAGMENTS THEREOF, FOR THE PREVENTION AND/OR TREATMENT AND DIAGNOSIS OF OILY SKIN AND AESTHETIC SKIN DISORDERS ASSOCIATED THEREWITH” (L'OREAL, priority 2013, published 2016).
Ends that are not written are not given here.

B1: Lacritin: antimicrobial peptide Lacritin, synthesized by hybrogenics Ref: Hgx 2238v1 (peptide, UniProt Q9GZZ8 20-138, looked up)
Extracellular glycoprotein …: EDASSDSTGADPAQEAGTSKPNEEISGPAEPASPPETTTTAQETSAAAVQGTAKVTSSRQELNPLKSIVEKSILLTEQALAKAGKGMHGGVPGGKQFIENGSEFAQKLLKKFSLLKPWA
B2: Recombinant human S100A7: recombinant human S100A7, Interchim (Protera), folding verified by NMR, batch EN00510-23/24/25 (protein, UniProt P31151 2-101, looked up)
Protein S100-A7: SNTQAERSIIGMIDMFHKYTRRDDKIEKPSLLTMMKENFPNFLSACDKKGTNYLADVFEKKDKNEDKKIDFSEFLSLLGDIATDYHKQSHGAAPCSGGSQ
B3: RNASE 7: antimicrobial peptide RNASE 7, Human Plv extraction (heel horn) (protein, UniProt Q9H1E1 29-156, looked up)
Ribonuclease 7: KPKGMTSSQWFKIQHMQPSPQACNSAMKNINKHTKRCKDLNTFLHEPFSSVAATCQTPKIACKNGDKNCHQSHGAVSLTMCKLTSGKHPNCRYKEKRQNKSYVVACKPPQKKDSQQFHLVPVHLDRVL

System: P. acnes ATCC 6919
Assay type: cell-based, Propionibacterium acnes
Settings: for MIC in μg/ml P. acnes: P. acnes ATCC 6919, 48 h incubation, optical density at 620 nm, concentration range 5 to 100 μg/ml, triplicate
Method: A micromethod was developed in a microplate.
The test principle is based on bringing decreasing concentrations of antimicrobial peptide (DCD-1L) into contact with an identical inoculum of P. acnes in a culture medium conducive to the growth of P. acnes. After incubation of the microplate for 48 h with the P. acnes strain, the optical density of the sample (620 nm) is measured and the results are expressed as percentage growth calculated relative to a growth control without antimicrobial peptide (negative control).
In addition, the inoculum is also brought into contact with triclosan in order to have a positive control.
The minimum inhibitory concentration or MIC is the lowest concentration of antibiotic that is sufficient to inhibit, in the laboratory, i.e. in vitro, the growth of a bacterial strain (bacterial colony).
The concentration range chosen ranged from 5 to 100 μg/ml.
Each concentration was tested in triplicate.
The inhibitory activity of the peptides was evaluated on the following microorganism: • P. acnes ATCC 6919 (Gram+bacterium)

| Molecule | MIC in μg/ml P. acnes [µg/mL] | growth of P. acnes (in the presence of a low concentration of the peptide) |
| --- | --- | --- |
| SSLLEKGLDGAKKAVGGLGKLGKDAVEDLESVGKGAVHDVKDVLDSVL [Dermcidin (DCD1L)] | <5 | greatly inhibited |
| B1 | 100 |  |
| B2 | >100 |  |
| B3 | >100 |  |
